From patent USRE47150 (Bayer, dated 2018)

T1: human tissue factor pathway inhibitor (TFPI) (human, UniProt P10646 29-304, limits assumed)
T1 construct: bought; also called hTFPI; human TFPI
T1 sequence (looked up): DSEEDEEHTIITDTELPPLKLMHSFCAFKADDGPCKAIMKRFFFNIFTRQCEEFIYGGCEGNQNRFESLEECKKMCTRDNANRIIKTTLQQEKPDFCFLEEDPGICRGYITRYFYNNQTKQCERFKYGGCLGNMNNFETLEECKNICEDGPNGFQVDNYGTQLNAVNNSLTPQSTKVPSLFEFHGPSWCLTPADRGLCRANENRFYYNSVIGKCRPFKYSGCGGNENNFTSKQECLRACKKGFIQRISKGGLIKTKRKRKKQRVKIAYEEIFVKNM

T2: mouse tissue factor pathway inhibitor (TFPI) (mouse, UniProt O54819 29-289, limits assumed)
T2 construct: bought; also called mTFPI; murine TFPI
T2 sequence (looked up): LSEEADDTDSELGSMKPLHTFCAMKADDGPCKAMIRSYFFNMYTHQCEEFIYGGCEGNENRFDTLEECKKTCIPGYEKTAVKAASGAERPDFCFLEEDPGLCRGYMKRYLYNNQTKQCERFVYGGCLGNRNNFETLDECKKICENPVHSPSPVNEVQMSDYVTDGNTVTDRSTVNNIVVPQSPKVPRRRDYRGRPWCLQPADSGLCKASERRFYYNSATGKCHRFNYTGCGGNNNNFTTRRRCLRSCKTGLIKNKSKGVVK


Tests used:
[1] = target: T1, human tissue factor pathway inhibitor …; assay: competitive ELISA
[2] = target: T2, mouse tissue factor pathway inhibitor …; assay: competitive ELISA

Row | Binder | variant/HC_K99L [1] | variant/HC_K99L [2]
1 | 2A8 HC S35D+S55R+K99L/LC D1S+Y48F+N51V+D91W (Fab, V domains shown) VH: QVQLVESGGGLVQPGGSLRLSCAASGFTFRSYGMDWVRQAPGKGLEWVSSIRGSRSSTYYADSVKGRFTISRDNSKNTLYLQMNSLRAEDTAVYYCARLYRYWFDYWGQGTLVTVSS VL: SIELTQPPSVSVAPGQTARISCSGDNLRNYYAHWYQQKPGQAPVVVIFYDVNRPSGIPERFSGSNSGNTATLTISGTQAEDEADYYCQSWWDGVPVFGGGTKLTVLG | 21.9 ratio | 22 ratio
2 | 2A8 HC S35D+S55R+K99L/LC D1S+I2Y+A13S+S21T+R28P+N29K+Y48F+N51V+E80M+S89A+D91W+D92S+G93S+V94T (Fab, V domains shown) VH: QVQLVESGGGLVQPGGSLRLSCAASGFTFRSYGMDWVRQAPGKGLEWVSSIRGSRSSTYYADSVKGRFTISRDNSKNTLYLQMNSLRAEDTAVYYCARLYRYWFDYWGQGTLVTVSS VL: SYELTQPPSVSVSPGQTARITCSGDNLPKYYAHWYQQKPGQAPVVVIFYDVNRPSGIPERFSGSNSGNTATLTISGTQAMDEADYYCQAWWSSTPVFGGGTKLTVLG | 21.4 ratio | 16.8 ratio
3 | 2A8 HC Q1E+R30S+S35D+S55R+S56G+K99L/LC D1S+I2Y+A13S+S21T+R28P+Y48F+N51V+E80M+S89A+D91W+D92S+G93S+V94T (Fab, V domains shown) VH: EVQLVESGGGLVQPGGSLRLSCAASGFTFSSYGMDWVRQAPGKGLEWVSSIRGSRGSTYYADSVKGRFTISRDNSKNTLYLQMNSLRAEDTAVYYCARLYRYWFDYWGQGTLVTVSS VL: SYELTQPPSVSVSPGQTARITCSGDNLPNYYAHWYQQKPGQAPVVVIFYDVNRPSGIPERFSGSNSGNTATLTISGTQAMDEADYYCQAWWSSTPVFGGGTKLTVLG | 18.8 ratio | 12.3 ratio
4 | 2A8 HC S35D+S55R+K99L/LC N26A+Y48F+N51V+D91W (Fab, V domains shown) VH: QVQLVESGGGLVQPGGSLRLSCAASGFTFRSYGMDWVRQAPGKGLEWVSSIRGSRSSTYYADSVKGRFTISRDNSKNTLYLQMNSLRAEDTAVYYCARLYRYWFDYWGQGTLVTVSS VL: DIELTQPPSVSVAPGQTARISCSGDALRNYYAHWYQQKPGQAPVVVIFYDVNRPSGIPERFSGSNSGNTATLTISGTQAEDEADYYCQSWWDGVPVFGGGTKLTVLG | 4.1 ratio | 4.1 ratio
5 | 2A8 HC S35D+S55R+K99L/LC N29K+Y48F+N51V+D91W (Fab, V domains shown) VH: QVQLVESGGGLVQPGGSLRLSCAASGFTFRSYGMDWVRQAPGKGLEWVSSIRGSRSSTYYADSVKGRFTISRDNSKNTLYLQMNSLRAEDTAVYYCARLYRYWFDYWGQGTLVTVSS VL: DIELTQPPSVSVAPGQTARISCSGDNLRKYYAHWYQQKPGQAPVVVIFYDVNRPSGIPERFSGSNSGNTATLTISGTQAEDEADYYCQSWWDGVPVFGGGTKLTVLG | 20 ratio | 18.9 ratio
6 | 2A8 HC S35D+S55R+K99L/LC H33Y+Y48F+N51V+D91W (Fab, V domains shown) VH: QVQLVESGGGLVQPGGSLRLSCAASGFTFRSYGMDWVRQAPGKGLEWVSSIRGSRSSTYYADSVKGRFTISRDNSKNTLYLQMNSLRAEDTAVYYCARLYRYWFDYWGQGTLVTVSS VL: DIELTQPPSVSVAPGQTARISCSGDNLRNYYAYWYQQKPGQAPVVVIFYDVNRPSGIPERFSGSNSGNTATLTISGTQAEDEADYYCQSWWDGVPVFGGGTKLTVLG | 14 ratio | 11.2 ratio
7 | 2A8 HC S35D+S55R+K99L/LC R28P+Y48F+N51V+D91W (Fab, V domains shown) VH: QVQLVESGGGLVQPGGSLRLSCAASGFTFRSYGMDWVRQAPGKGLEWVSSIRGSRSSTYYADSVKGRFTISRDNSKNTLYLQMNSLRAEDTAVYYCARLYRYWFDYWGQGTLVTVSS VL: DIELTQPPSVSVAPGQTARISCSGDNLPNYYAHWYQQKPGQAPVVVIFYDVNRPSGIPERFSGSNSGNTATLTISGTQAEDEADYYCQSWWDGVPVFGGGTKLTVLG | 22 ratio | 23.2 ratio
8 | 2A8 HC S35D+S55R+K99L/LC I2Y+Y48F+N51V+D91W (Fab, V domains shown) VH: QVQLVESGGGLVQPGGSLRLSCAASGFTFRSYGMDWVRQAPGKGLEWVSSIRGSRSSTYYADSVKGRFTISRDNSKNTLYLQMNSLRAEDTAVYYCARLYRYWFDYWGQGTLVTVSS VL: DYELTQPPSVSVAPGQTARISCSGDNLRNYYAHWYQQKPGQAPVVVIFYDVNRPSGIPERFSGSNSGNTATLTISGTQAEDEADYYCQSWWDGVPVFGGGTKLTVLG | 18.7 ratio | 19 ratio

More lines, now with the values ahead:

Row | variant/HC_K99L [1] | variant/HC_K99L [2] | Binder
9 | 17 ratio | 16.5 ratio | 2A8 HC S35D+S55R+K99L/LC Y48F+N51V+D91W+G93S (Fab, V domains shown) VH: QVQLVESGGGLVQPGGSLRLSCAASGFTFRSYGMDWVRQAPGKGLEWVSSIRGSRSSTYYADSVKGRFTISRDNSKNTLYLQMNSLRAEDTAVYYCARLYRYWFDYWGQGTLVTVSS VL: DIELTQPPSVSVAPGQTARISCSGDNLRNYYAHWYQQKPGQAPVVVIFYDVNRPSGIPERFSGSNSGNTATLTISGTQAEDEADYYCQSWWDSVPVFGGGTKLTVLG
10 | 23.1 ratio | 21.2 ratio | 2A8 HC S35D+S55R+K99L/LC Y48F+N51V+E80M+D91W (Fab, V domains shown) VH: QVQLVESGGGLVQPGGSLRLSCAASGFTFRSYGMDWVRQAPGKGLEWVSSIRGSRSSTYYADSVKGRFTISRDNSKNTLYLQMNSLRAEDTAVYYCARLYRYWFDYWGQGTLVTVSS VL: DIELTQPPSVSVAPGQTARISCSGDNLRNYYAHWYQQKPGQAPVVVIFYDVNRPSGIPERFSGSNSGNTATLTISGTQAMDEADYYCQSWWDGVPVFGGGTKLTVLG
11 | 5 ratio | 3.1 ratio | 2A8 HC S35L+S54F+K99V/LC Y48F+D91K (Fab, V domains shown) VH: QVQLVESGGGLVQPGGSLRLSCAASGFTFRSYGMLWVRQAPGKGLEWVSSIRGFSSSTYYADSVKGRFTISRDNSKNTLYLQMNSLRAEDTAVYYCARVYRYWFDYWGQGTLVTVSS VL: DIELTQPPSVSVAPGQTARISCSGDNLRNYYAHWYQQKPGQAPVVVIFYDNNRPSGIPERFSGSNSGNTATLTISGTQAEDEADYYCQSWKDGVPVFGGGTKLTVLG
12 | 10.9 ratio | 9 ratio | 2A8 HC S35D+S55R+K99L/LC Y48F+N51V+S89A+D91W+D92S+G93S+V94T+P95A (Fab, V domains shown) VH: QVQLVESGGGLVQPGGSLRLSCAASGFTFRSYGMDWVRQAPGKGLEWVSSIRGSRSSTYYADSVKGRFTISRDNSKNTLYLQMNSLRAEDTAVYYCARLYRYWFDYWGQGTLVTVSS VL: DIELTQPPSVSVAPGQTARISCSGDNLRNYYAHWYQQKPGQAPVVVIFYDVNRPSGIPERFSGSNSGNTATLTISGTQAEDEADYYCQAWWSSTAVFGGGTKLTVLG
13 | 22.8 ratio | 19.9 ratio | 2A8 HC S35D+S55R+K99L/LC Y48F+N51V+D91W+V94T (Fab, V domains shown) VH: QVQLVESGGGLVQPGGSLRLSCAASGFTFRSYGMDWVRQAPGKGLEWVSSIRGSRSSTYYADSVKGRFTISRDNSKNTLYLQMNSLRAEDTAVYYCARLYRYWFDYWGQGTLVTVSS VL: DIELTQPPSVSVAPGQTARISCSGDNLRNYYAHWYQQKPGQAPVVVIFYDVNRPSGIPERFSGSNSGNTATLTISGTQAEDEADYYCQSWWDGTPVFGGGTKLTVLG
14 | 18.6 ratio | 18.2 ratio | 2A8 HC S35D+S55R+K99L/LC Y48F+N51V+S89A+D91W (Fab, V domains shown) VH: QVQLVESGGGLVQPGGSLRLSCAASGFTFRSYGMDWVRQAPGKGLEWVSSIRGSRSSTYYADSVKGRFTISRDNSKNTLYLQMNSLRAEDTAVYYCARLYRYWFDYWGQGTLVTVSS VL: DIELTQPPSVSVAPGQTARISCSGDNLRNYYAHWYQQKPGQAPVVVIFYDVNRPSGIPERFSGSNSGNTATLTISGTQAEDEADYYCQAWWDGVPVFGGGTKLTVLG
15 | 21.4 ratio | 18.7 ratio | 2A8 HC S35D+S55R+S56G+K99L/LC Y48F+N51V+D91W (Fab, V domains shown) VH: QVQLVESGGGLVQPGGSLRLSCAASGFTFRSYGMDWVRQAPGKGLEWVSSIRGSRGSTYYADSVKGRFTISRDNSKNTLYLQMNSLRAEDTAVYYCARLYRYWFDYWGQGTLVTVSS VL: DIELTQPPSVSVAPGQTARISCSGDNLRNYYAHWYQQKPGQAPVVVIFYDVNRPSGIPERFSGSNSGNTATLTISGTQAEDEADYYCQSWWDGVPVFGGGTKLTVLG
16 | 17.8 ratio | 16.9 ratio | 2A8 HC S35D+S56G+K99L/LC Y48F+D91L+V96W (Fab, V domains shown) VH: QVQLVESGGGLVQPGGSLRLSCAASGFTFRSYGMDWVRQAPGKGLEWVSSIRGSSGSTYYADSVKGRFTISRDNSKNTLYLQMNSLRAEDTAVYYCARLYRYWFDYWGQGTLVTVSS VL: DIELTQPPSVSVAPGQTARISCSGDNLRNYYAHWYQQKPGQAPVVVIFYDNNRPSGIPERFSGSNSGNTATLTISGTQAEDEADYYCQSWLDGVPWFGGGTKLTVLG
17 | 23.9 ratio | 22.8 ratio | 2A8 HC S35D+S55R+K99L/LC Y48F+N51V+D91W+D92S (Fab, V domains shown) VH: QVQLVESGGGLVQPGGSLRLSCAASGFTFRSYGMDWVRQAPGKGLEWVSSIRGSRSSTYYADSVKGRFTISRDNSKNTLYLQMNSLRAEDTAVYYCARLYRYWFDYWGQGTLVTVSS VL: DIELTQPPSVSVAPGQTARISCSGDNLRNYYAHWYQQKPGQAPVVVIFYDVNRPSGIPERFSGSNSGNTATLTISGTQAEDEADYYCQSWWSGVPVFGGGTKLTVLG
18 | 19.5 ratio | 18.8 ratio | 2A8 HC S35D+S55R+K99L/LC S21T+Y48F+N51V+D91W (Fab, V domains shown) VH: QVQLVESGGGLVQPGGSLRLSCAASGFTFRSYGMDWVRQAPGKGLEWVSSIRGSRSSTYYADSVKGRFTISRDNSKNTLYLQMNSLRAEDTAVYYCARLYRYWFDYWGQGTLVTVSS VL: DIELTQPPSVSVAPGQTARITCSGDNLRNYYAHWYQQKPGQAPVVVIFYDVNRPSGIPERFSGSNSGNTATLTISGTQAEDEADYYCQSWWDGVPVFGGGTKLTVLG
19 | 15.7 ratio | 13.7 ratio | 2A8 HC S35D+S55R+K99L/LC Y48F+N51V+D91W+P95V (Fab, V domains shown) VH: QVQLVESGGGLVQPGGSLRLSCAASGFTFRSYGMDWVRQAPGKGLEWVSSIRGSRSSTYYADSVKGRFTISRDNSKNTLYLQMNSLRAEDTAVYYCARLYRYWFDYWGQGTLVTVSS VL: DIELTQPPSVSVAPGQTARISCSGDNLRNYYAHWYQQKPGQAPVVVIFYDVNRPSGIPERFSGSNSGNTATLTISGTQAEDEADYYCQSWWDGVVVFGGGTKLTVLG
